Nine molecules from patent US20260263614A1, “ANTIBODY DRUG CONJUGATES THAT BIND CDCP1 AND USES THEREOF” (Pheon Therapeutics Ltd, priority 2022, published 2026) can be followed below.

The test system of data set [1] is linear double-stranded TyrT fragment. As to the kind of experiment: DNA cross-linking assay. Format: biochemical. Here is the method: The preparation of the TyrT DNA fragment has been previously described. Briefly, the sequence which had been cloned into the BamHI site of pUC18 was obtained by cutting with HindIII and EcoRI. Radiolabelled DNA fragments were prepared by filling in the 3′-end of the HindIII site with [α-^32P]dATP using Klenow DNA polymerase (exo-).
The radiolabelled DNA fragment was separated from the remainder of the plasmid DNA on a 6% non-denaturing polyacrylamide gel. The gel (20 cm long, 0.3 mm thick) was run at 400 V in 1×TBE running buffer for about 1-2 h, until the bromophenol blue had run most of the way down the gel. The glass plates were separated and the position of the labelled DNA fragment was established by short (1 min) exposure to an X-ray film. The relevant band was then cut from the gel and the radiolabelled DNA eluted by adding 300 μL 10 mM Tris-HCl, pH 7.5 containing 0.1 mM EDTA and gently agitating overnight at room temperature. The eluted DNA was finally precipitated with ethanol and re-suspended in a suitable volume of 10 mM Tris-HCl, pH 7.5 containing 0.1 mM EDTA buffer so as to give at least 10 counts per second/μL on a hand-held Geiger counter. With fresh plasmid and α-^32P-dATP this process typically generated about 150 μL of radiolabelled fragment DNA. The absolute concentration of the DNA is not important, and it is typically lower than 10 nM.
Radiolabelled DNA ([…]) was mixed with 1.5 μL ligand solution of various concentrations (10 μM-10 nM) and incubated overnight at 37° C.
After overnight incubation, the samples were mixed with 7 μL loading solution (80% formamide containing 10 mM EDTA, 10 mM NaOH, 0.1% bromophenol blue) and incubated at 65° C. for 5 min. Control 1 (C1) for native double-stranded DNA consisted of 1.5 μL labelled DNA, 1.5 μL 10 mM Tris-HCl, pH 7.5 containing 0.1 mM EDTA and 7 μL 1× loading dye. […]
The ability of 26 to cross-link DNA was evaluated using an assay involving a linear double-stranded TyrT fragment (FIG. 17). […]

A short description of data set [2]: Comparative repeat-dose rat toxicity study. Type of data set: in vivo. As to conditions: DAR 8 on a Trastuzumab backbone; IV once every 3 weeks, two doses, 20 or 60 mg/kg.
Data set [3] concerns HexA and MS1 DNA fragments. The data set is described as follows: DNA footprinting. Type of data set: binding. The procedure: Footprinting reactions were performed as using previously described methods using the DNA fragments HexA and HexB, which together contain all 64 symmetrical hexanucleotide sequences, and MS1 that contains all possible […] tetranucleotide sequences. The DNA fragments were obtained by cutting the parent plasmids with HindIII and SacI (for HexA and MS1) or EcoRI and PstI (for HexB), and were labelled at the 3′-end of the HindIII or EcoRI sites with [α-^32P]dATP using reverse transcriptase or exo-Klenow fragment. After gel purification, the radiolabelled DNA was dissolved in 10 mM Tris-HCl pH 7.5 containing 0.1 mM EDTA, at a concentration of about 10 c.p.s per μL as determined on a hand held Geiger counter. 1.5 μL of radiolabelled DNA was mixed with 1.5 μL ligand that had been freshly diluted in 10 mM Tris-HCl pH 7.5, containing 10 mM NaCl. The complexes were left to equilibrate for at least 12 hours before digesting with 2 μL DNase I (final concentration about 0.01 units/mL). The reactions were stopped after 1 minute by adding 4 μL of formamide containing 10 mM EDTA and bromophenol blue (0.1% w/v). The samples were then heated at 100° C. for 3 minutes before loading onto 8% denaturing polyacrylamide gels containing 8 M urea. Gels were fixed in 10% acetic acid, transferred to 3 MM paper, dried and exposed to a phosphor screen overnight, before analysing with a Typhoon phosphorimager
The DNA sequence selectivity profile of the molecules was investigated using a modification of a previously established DNA footprinting assay. Following an overnight incubation of the ligand-DNA complexes, the mixture was mixed with strand separation buffer containing 10 mM EDTA, 10 mM NaOH, 0.1% bromophenol blue, 80% formamide and incubated at 100° C. for 3 min. The mixture was then immediately cooled on ice and run on an 8% denaturing gel. […] The possible adducts formed within the HexA sequences are shown in FIGS. 20 and 21, respectively.

Data set [4] addresses T1, CDCP1 on antigen-positive cells (A427; CDCP1+ cells MDA-MB-468, PC3, DU145) (Homo sapiens (Human), UniProt Q9H5V8 30-836, On the FIG. 45 cell lines, part of the CDCP1 is proteolytically cleaved in the extracellular domain; the cleavage site is not stated. The uncleaved mature protein is given.).
T1 construct: also called the antigen; antigen positive cell-line (A427)
As to the kind of experiment: flow cytometry on MDA-MB-468 cells (CDCP1+ cleavage), channel R712-A. Background: A flow cytometer gives signals particle by particle.

Data set [5] concerns the target T1, CDCP1 on antigen-positive cells (A427; …). As to the kind of experiment: binding to CDCP1+ cells (cell line not given), % Maximum against log concentration, fitted curve.
Data set [6] has as its target T2, huCDCP1(F30-T667 Q525)-8×His_T3 (human, UniProt Q9H5V8 30-667).
T2 construct: The construct name gives the limits F30-T667 and Q525; also called recombinant CDCP1 ECD; CDCP1 ECD
The data set is described as follows: SPR, huCDCP1(F30-T667 Q525)-8×His_T3 as analyte; mAb lot T14.

Data set [7] concerns the target T1, CDCP1 on antigen-positive cells (A427; …). As to the kind of experiment: binding to CDCP1+ cells (cell line not given), % Maximum against log concentration, fitted curve. This is another data set of the same source.

Read-outs that look alike come from different tables or passages of the source.

`COc1cc2c(cc1OCCCC(=O)Nc1cc(C(=O)Nc3ccc(N)cc3)n(C)c1)N=C[C@@H]1CCCCN1C2=O` [Compound 19, (S)—N-(4-Aminophenyl)-4-(4-((2-methoxy-12-oxo-6a,7,8,9,10,12-hexahydrobenzo[e]pyrido[1,2-a][1,4]diazepin-3-yl)oxy)butanamido)-1-methyl-1H-pyrrol-2-carboxamide]: the “ability to cross-link DNA (conclusion)” value in data set [1] was “incapable of cross-linking DNA”.
On to `CC[C@@]1(O)C(=O)OCc2c1cc1n(c2=O)Cc2c-1nc1cc(F)c(C)c3c1c2[C@@H](NC(=O)CO)CC3` [Dxd, reference compound], for which, in data set [2], the tolerability entry is recorded as “well tolerated”.
Consider `COc1cc2c(cc1OCCCC(=O)Nc1cc(C(=O)Nc3ccc(-c4cc(C(=O)Nc5ccc(N)cc5)n(C)c4)cc3)n(C)c1)N=C[C@@H]1CCCCN1C2=O` [Compound 26, (S)—N-(4-aminophenyl)-4-(4-(4-(4-((2-methoxy-12-oxo-6a,7,8,9,10,12-hexahydrobenzo[e]pyrido[1,2-a][1,4]diazepin-3-yl)oxy)butanamido)-1-methyl-1H-pyrrol-2-carboxamido)phenyl)-1-methyl-1H-pyrrol-2-carboxamide], for which the “ability to cross-link DNA (conclusion)” value in data set [1] is given as “incapable of cross-linking DNA”. In addition, the DNA interstrand cross-links result in data set [1] (six concentrations, overnight incubation at 37° C., denaturing gel) was “not detectable at any concentration”. Besides, in data set [3], the “DNA stabilisation and sequence selectivity (biophysical summary)” value is “effectively stabilises DNA with a high degree of sequence-specificity”; the “DNA-binding site (X any base, W adenine or thymine)” value is “XGXWWWW”. Moreover, the “footprints (preferred sites) on HexA” value in data set [3] (overnight incubation of ligand-DNA complexes) is reported as “only five preferred sites”.
Regarding `C=CCOC(=O)N1c2cc(OCCCC(=O)Nc3cc(C(=O)Nc4ccc(NC(=O)C(F)(F)F)cc4)n(C)c3)c(OC)cc2C(=O)N2CCCC[C@H]2C1OC1CCCCO1` (stereo partly drawn) [Compound 17, Allyl (6aS)-2-methoxy-3-(4-((1-methyl-5-((4-(2,2,2-trifluoroacetamido)phenyl)carbamoyl)-1H-pyrrol-3-yl)amino)-4-oxobutoxy)-12-oxo-6-((tetrahydro-2H-pyran-2-yl)oxy)-6,6a,7,8,9,10-hexahydrobenzo[e]pyrido[1,2-a][1,4]diazepine-5(12H)-carboxylate], the “DNA-binding site (X any base, W adenine or thymine)” value in data set [3] is “XGXWWWW”.

B1: mAbs-CDCPA1 Sequence 2 (anti-CDCP1 antibody, Sequence 2) (antibody, V domains shown)
VH: QVQLVQSGAEVKKPGSSVKVSCKASGGTFSSYAMSWVRQAPGQGLEWMGGIIPILGTTNYAQKFQGRVTITADKSTSTAYMELSSLRSEDTAVYYCAREGLYAFDIWGQGTMVTVSS
VL: DIQMTQSPSSLSASVGDRVTITCRASQSISSYLNWYQQKPGKAPKFLIYVASSLQSGVPSRFSGRGSGTDFTLTISSLQPEDFATYYCQQSYSTPWTFGQGTKVEIK
Turning to B1, in data set [4], the binding result is on record as “binds”.

B2: CDCP1-vcMMAE (DAR of 4) (antibody, V domains shown)
VH: EVQLLESGGGLVQPGGSLRLSCAASGFTFSNYAMNWVRQAPGKGLEWVSAISGGGGSTYYADSVKGRFTISRDNSKNTLYLQMNSLRAEDTAVYYCAKESITMVRGVMDYYGMDVWGQGTTVTVSS
VL: DIQLTQSPSFLSASVGDRVTITCRASQGISSYLAWYQQKPGKAPKLLIYAASTLQGGVPSRFSGSGSGTEFTLTISSLQPEDFATYYCQHLNRFPRTFGQGTKVEIK
modifications: vc-MMAE (Val-Cit linker, monomethyl auristatin E) conjugated to the antibody, DAR of 4; sites not stated
notes: also called CDCP1-MMAE
In the case of B2, in data set [5], the EC50 came to 0.384 µg/mL. In data set [6], the Kd (in general, the free concentration of one partner at which half of the binding sites on the other are occupied at equilibrium, for simple one-to-one binding) came out at 0.604 nM; the koff (usually the first-order rate constant of dissociation) came to 0.00038 s⁻¹; the kon (as a rule, the rate constant with which the complex forms) came out at 629000 M⁻¹ s⁻¹.

B3: ADC4 (CDCP1 mAb conjugated to compound 30, DAR of 4) (antibody, IgG1, V domains shown)
VH: EVQLLESGGGLVQPGGSLRLSCAASGFTFSNYAMNWVRQAPGKGLEWVSAISGGGGSTYYADSVKGRFTISRDNSKNTLYLQMNSLRAEDTAVYYCAKESITMVRGVMDYYGMDVWGQGTTVTVSS
VL: DIQLTQSPSFLSASVGDRVTITCRASQGISSYLAWYQQKPGKAPKLLIYAASTLQGGVPSRFSGSGSGTEFTLTISSLQPEDFATYYCQHLNRFPRTFGQGTKVEIK
modifications: compound 30 (Mal-amido-PEG8-Val-Ala-exatecan) conjugated stochastically to reduced cysteines of the IgG1, average DAR 4; sites not stated
For the molecule B3, in data set [6], the Kd turned out to be 0.604 nM, the koff came out at 0.000401 s⁻¹ and the kon was 663000 M⁻¹ s⁻¹.

B4: ADC3 (CDCP1 mAb conjugated to compound 30, DAR of 8) (antibody, IgG1, V domains shown)
VH: EVQLLESGGGLVQPGGSLRLSCAASGFTFSNYAMNWVRQAPGKGLEWVSAISGGGGSTYYADSVKGRFTISRDNSKNTLYLQMNSLRAEDTAVYYCAKESITMVRGVMDYYGMDVWGQGTTVTVSS
VL: DIQLTQSPSFLSASVGDRVTITCRASQGISSYLAWYQQKPGKAPKLLIYAASTLQGGVPSRFSGSGSGTEFTLTISSLQPEDFATYYCQHLNRFPRTFGQGTKVEIK
modifications: compound 30 (Mal-amido-PEG8-Val-Ala-exatecan) conjugated stochastically to reduced cysteines of the IgG1, average DAR 7.3 (called DAR of 8); sites not stated
notes: also called CDCP1-targeted exatecan conjugate
In data set [6], B4 showed a Kd of 0.57 nM, a koff of 0.000422 s⁻¹ and a kon of 740000 M⁻¹ s⁻¹. Also, in data set [7], the EC50 was 0.16 µg/mL.

B5: ADC2 (CDCP1 mAb conjugated to compound 20, DAR of 4) (antibody, IgG1, V domains shown)
VH: EVQLLESGGGLVQPGGSLRLSCAASGFTFSNYAMNWVRQAPGKGLEWVSAISGGGGSTYYADSVKGRFTISRDNSKNTLYLQMNSLRAEDTAVYYCAKESITMVRGVMDYYGMDVWGQGTTVTVSS
VL: DIQLTQSPSFLSASVGDRVTITCRASQGISSYLAWYQQKPGKAPKLLIYAASTLQGGVPSRFSGSGSGTEFTLTISSLQPEDFATYYCQHLNRFPRTFGQGTKVEIK
modifications: compound 20 (maleimide-Val-Ala-PDD linker-payload) conjugated stochastically to reduced cysteines of the IgG1, average DAR 4.2; sites not stated
In data set [6], B5 returned a Kd of 0.635 nM, a koff of 0.000374 s⁻¹ and a kon of 589000 M⁻¹ s⁻¹.
